Results as given in paper PMC4783047, “Determinants of Amyloid Formation for the Yeast Termination Factor Nab3” (PLoS ONE, 2016).

Assays:
thioflavin T = assay: Thioflavin T fluorescence; details: value read at the wild-type emission peak, about 480 nm; the mutant trace lies on the zero line over the whole 460-595 nm spectrum; parent: est. 66; read off a plot
[1] = target: the molecule itself; assay: transmission electron microscopy of filaments (negative stain); purified, concentrated protein left undisturbed (4°C, or 4°C or 22°C for the LCD proteins) for days to weeks; 1% phosphotungstic acid stain; self-assembly into filaments

“Nab3 low complexity domain, C-terminal 134 amino acids of Nab3 (Nab3^134) (from UniProt P38996) Q2E; Q7E; Q9E; Q15E; Q30E; Q32E; Q34E; Q39E; Q41E; Q47E; Q50E; Q52E; Q55E; Q57E; Q59E; Q82E; Q96E; Q101E; Q105E; Q107E; Q109E; Q111E; Q113E; Q115E” was tested, and the response (thioflavin T) was 0.

B1: Nab3 low complexity domain, C-terminal 134 amino acids of Nab3 (Nab3^134) (domain or fragment, S. cerevisiae, UniProt P38996 669-802, looked up)
chain: SQTPMDQQQLLSAIQNLPPNVVSNLLSMAQQQQQQPHAQQQLVGLIQSMQGQAPQQQQQQLGGYSSMNSSSPPPMSTNYNGQNISAKPSAPPMSHQPPPPQQQQQQQQQQQQQQQQPAGNNVQSLLDSLAKLQK
notes: Inserted between the BglII and XhoI sites of pET32a; also called Nab3 LCD; wildtype LCD
B1: binds [1].

B2: Pcf11 low complexity domain (residues 228-287) (domain or fragment, yeast, UniProt P39081 228-287, looked up)
chain: MRYHELQQQQQQQQQQQQQQQQQQQQYHETKDMVGSYTQNSNSAIPLFGNNSDTTNQQNS
notes: Pcf11, yeast transcription termination factor, codon 228 to codon 287 (core prion-like domain as defined by Alberti et al.); Inserted between the BglII and XhoI sites of pET32a; also called Pcf11 LCD; Pcf11's LCD; source: E. coli, pET32-Pcf11-LCD (synthetic gene), thioredoxin fusion, purified (HisTrap, thrombin cleavage, second HisTrap)
B2: binds [1].

B3: Nab3^134 with the last 18 amino acids of Nab3 deleted (Nab3^134Δα) (domain or fragment, S. cerevisiae, UniProt P38996 669-784, looked up)
chain: SQTPMDQQQLLSAIQNLPPNVVSNLLSMAQQQQQQPHAQQQLVGLIQSMQGQAPQQQQQQLGGYSSMNSSSPPPMSTNYNGQNISAKPSAPPMSHQPPPPQQQQQQQQQQQQQQQQ
notes: Same vector as m1, so an S-tag is probably left after thrombin cleavage
B3: binds [1].

B4: Full-length Nab3 (natural protein, S. cerevisiae, UniProt P38996 1-802, looked up)
chain: MSDENHNSDVQDIPSPELSVDSNSNENELMNNSSADDGIEFDAPEEEREAEREEENEEQHELEDVNDEEEEDKEEKGEENGEVINTEEEEEEEHQQKGGNDDDDDDNEEEEEEEEDDDDDDDDDDDDEEEEEEEEEEGNDNSSVGSDSAAEDGEDEEDKKDKTKDKEVELRRETLEKEQKDVDEAIKKITREENDNTHFPTNMENVNYDLLQKQVKYIMDSNMLNLPQFQHLPQEEKMSAILAMLNSNSDTALSVPPHDSTISTTASASATSGARSNDQRKPPLSDAQRRMRFPRADLSKPITEEEHDRYAAYLHGENKITEMHNIPPKSRLFIGNLPLKNVSKEDLFRIFSPYGHIMQINIKNAFGFIQFDNPQSVRDAIECESQEMNFGKKLILEVSSSNARPQFDHGDHGTNSSSTFISSAKRPFQTESGDMYNDDNGAGYKKSRRHTVSCNIFVKRTADRTYAIEVFNRFRDGTGLETDMIFLKPRMELGKLINDAAYNGVWGVVLVNKTHNVDVQTFYKGSQGETKFDEYISISADDAVAIFNNIKNNRNNSRPTDYRAMSHQQNIYGAPPLPVPNGPAVGPPPQTNYYQGYSMPPPQQQQQQPYGNYGMPPPSHDQGYGSQPPIPMNQSYGRYQTSIPPPPPQQQIPQGYGRYQAGPPPQPPSQTPMDQQQLLSAIQNLPPNVVSNLLSMAQQQQQQPHAQQQLVGLIQSMQGQAPQQQQQQLGGYSSMNSSSPPPMSTNYNGQNISAKPSAPPMSHQPPPPQQQQQQQQQQQQQQQQPAGNNVQSLLDSLAKLQK
notes: Nab3, S. cerevisiae transcription termination factor, 802 amino acids; also called full-length wildtype Nab3; the entire 802-residue protein
B4: binds [1].
